In patent publication US20080241162A1 (GENERAL ANTIBODIES AND BIOTECHNOLOGIES S R L, published 2008):

Target: purified recombinant HCV/E2 of 1a genotype (strain H) expressed in CHO cells (Hepatitis C virus genotype 1a (strain H), UniProt P27958 388-664)
Sequence (P27958 388-664 limits assumed): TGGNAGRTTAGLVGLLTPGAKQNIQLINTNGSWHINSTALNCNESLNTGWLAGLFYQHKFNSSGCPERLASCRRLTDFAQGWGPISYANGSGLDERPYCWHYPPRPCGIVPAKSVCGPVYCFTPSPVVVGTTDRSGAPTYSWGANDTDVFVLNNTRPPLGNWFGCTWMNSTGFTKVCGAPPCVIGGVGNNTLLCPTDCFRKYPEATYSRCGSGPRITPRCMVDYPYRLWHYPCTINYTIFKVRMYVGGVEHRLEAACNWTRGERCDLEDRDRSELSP

B1: human recombinant Fab e8 (Fab, V domains shown)
VH: LLEQSGAEVKMPGATVKVSCQSSRYTFTSYGIGWVRQAPGQGLEWMGWISGYTHETKYAQSFQGRVTMTAETSTGTAYMELRSLRSDDTATYYCARDGGGRVVVPPTHLRAFDVWGQGT
VL: MAELTQSPGTLSLSPGERATLSCRASHRVNNNFLAWYQQKPGQAPRLLISGASTRATGIPDRFSGSGSGTDFTLTISRLEPDDFAVYYCQQYGDSPLYSFGQGT
B1 was tested. Which IC50 did it give?
Its IC50 is > 40 µg/mL.

B2: human recombinant Fab e20 (Fab, V domains shown)
VH: LLEQSGAEVKKPGSSVKVSCKASGDHYGINWVRQAPGQGLEWMGGIIPVFGTTTYAQKFQGRATITADDSTGTAFLELTRLTFDDTAVYFCATPHQLHVLRGGKALSPWDYWGQGT
VL: MAELTQSPATLSVSPGERATLSCRASQSVSSNLAWYQQKRGQAPSLLIYGTSTRATGIPARFSGSGSGTEFTLTISSLQSEDFAVYYCQQYNDWPSTFGQGT
For B2, which IC50 is on record?
The IC50 was 3 µg/mL.

B3: human recombinant Fab e301 (Fab, V domains shown)
VH: LLEQSGSEVKKPGSSVRVSCTTSGGTLSDYGFNWLRQAPGQGPEWMGGIIPLFRRTTYGQKFQGRLTITADESTGATYMELSSLRSDDTAVYYCAREKVSVLTGGKSLHYFEYWGKGT
VL: MAELTQSPATLSVSPGERATLSCRASQSVSSRLAWYQQKRGQAPSLLIYDTSSRATGVPARFSASGSGTQFTLTISSLQSEDFALYYCQQYNDWPSTFGQGT
For B3, which IC50 is on record?
Its IC50 is 3 µg/mL.

B4: human recombinant Fab e137 (Fab, V domains shown)
VH: LLEQSGSEVKVPGSSLKVSCKTSGGTFSTYTFSWVRQAPGQGLEWMGGITPIIGIANYARNFQDRVTITADESTSTVYMEVRRLRSEDTAVYYCAKTSEVTATRGRTFFYSAMDVWGQGT
VL: MAELTQSPSFLSASVGDRVTITCRASQGISNYLAWYQQKPGKAPKLLIYAASTLQSGVPSRFSGSGSWTEFTLTISRLQPEDFATYYCQHLNTYPWTFGQGT
With B4 as the binder, how does the IC50 read?
Its IC50 is 40 µg/mL.

B5: human recombinant Fab e509 (Fab, V domains shown)
VH: LLEESGAEVKKPGSSVKVSCKTSGDTFRYGITWVRQAPGQGLEWMGQIMPTFATATYAQRFQGRVTISADESTSTAYLEVRSLRSEDTAVYYCATPRQVTILRGPKALSPWDYWGQGT
VL: not shown
With B5 as the binder, how does the IC50 read?
Its IC50 is < 0.035 µg/mL.
